Target: C5 (Homo sapiens, UniProt P01031)
Assay: Monoclonal phage screening ELISA, human C5
Assay type: binding
Method: For the C5 libraries, a single round of enrichment was performed with either human or rat C5 protein. […] Phage were blocked for 30 minutes. Biotinylated antigen was added to the blocked phage at a concentration of 100 nM and incubated at room temperature with mixing.
Colonies were picked into a 96-well culture plate containing selective medium 2TY supplemented with 1% Glucose and 100 μg/ml Carbenicillin and was incubated at 37° C. until wells reached mid-log phase of growth prior to addition of M13K07 helper phage. The block was incubated without shaking for 1 hour to achieve infection and phage production using continued culture in selective media supplemented with 50 μg/ml Kanamycin and 100 μg/ml Carbenicillin.
Binding to antigen was assessed by monoclonal phage ELISA, 96-well flat bottom Nunc MaxiSorp plates (Thermofisher) were coated with a 2.5 μg/ml solution of human, mouse, or rat serum albumin, human C5 or mouse C5 diluted with PBS, and left overnight at 4° C. Negative control plate and Anti-myc tag plate were also prepared.
Monoclonal phage rescue supernatants were blocked with an equal volume of a 2% milk (w/v) in PBS, for serum albumin proteins, or 2% BSA and 2% milk (w/v) in PBS solution. The coating solution was removed from coated Nunc plates and each plate was blocked with 1% BSA in PBS (for C5 libraries) or 1% milk powder (for albumin library). Both phage and Nunc plates were blocked for 1 hour at room temperature. Nunc plates were washed using a 96-well microplate washer (BioTek) with a PBS solution contain 0.1% Tween20 (Sigma Aldrich). 100 of blocked phage solution was added to each well of Nunc MaxiSorp plate and left shaking at room temperature for 1 hour. Plates were washed and dried as previously described. 100 of an Anti-M13-Horse radish peroxidase conjugated antibody (GE Healthcare) diluted (1:5,000) in a 1% BSA or milk solution was added to each well and left shaking at room temperature for 1 hour. Plates were washed again and 50 μL of TMB solution (Merck Millipore) was added to each well. Plates were left shaking for 10 minutes. Absorbance was measured at 630 nm and 490 nm. Binding signals were obtained where Absorbance at 630 nm was >3-times the signal upon irrelevant antigen.
By monoclonal phage ELISA the following ultralong CDR-H3 sequences were identified as binders (OD>0.2 AU): […]

[1] = anti-C5 ultralong CDR-H3, binder = OD>0.2 AU
[2] = knob domain of the anti-C5 ultralong CDR-H3

Sequence of C5 (P01031 19-1676): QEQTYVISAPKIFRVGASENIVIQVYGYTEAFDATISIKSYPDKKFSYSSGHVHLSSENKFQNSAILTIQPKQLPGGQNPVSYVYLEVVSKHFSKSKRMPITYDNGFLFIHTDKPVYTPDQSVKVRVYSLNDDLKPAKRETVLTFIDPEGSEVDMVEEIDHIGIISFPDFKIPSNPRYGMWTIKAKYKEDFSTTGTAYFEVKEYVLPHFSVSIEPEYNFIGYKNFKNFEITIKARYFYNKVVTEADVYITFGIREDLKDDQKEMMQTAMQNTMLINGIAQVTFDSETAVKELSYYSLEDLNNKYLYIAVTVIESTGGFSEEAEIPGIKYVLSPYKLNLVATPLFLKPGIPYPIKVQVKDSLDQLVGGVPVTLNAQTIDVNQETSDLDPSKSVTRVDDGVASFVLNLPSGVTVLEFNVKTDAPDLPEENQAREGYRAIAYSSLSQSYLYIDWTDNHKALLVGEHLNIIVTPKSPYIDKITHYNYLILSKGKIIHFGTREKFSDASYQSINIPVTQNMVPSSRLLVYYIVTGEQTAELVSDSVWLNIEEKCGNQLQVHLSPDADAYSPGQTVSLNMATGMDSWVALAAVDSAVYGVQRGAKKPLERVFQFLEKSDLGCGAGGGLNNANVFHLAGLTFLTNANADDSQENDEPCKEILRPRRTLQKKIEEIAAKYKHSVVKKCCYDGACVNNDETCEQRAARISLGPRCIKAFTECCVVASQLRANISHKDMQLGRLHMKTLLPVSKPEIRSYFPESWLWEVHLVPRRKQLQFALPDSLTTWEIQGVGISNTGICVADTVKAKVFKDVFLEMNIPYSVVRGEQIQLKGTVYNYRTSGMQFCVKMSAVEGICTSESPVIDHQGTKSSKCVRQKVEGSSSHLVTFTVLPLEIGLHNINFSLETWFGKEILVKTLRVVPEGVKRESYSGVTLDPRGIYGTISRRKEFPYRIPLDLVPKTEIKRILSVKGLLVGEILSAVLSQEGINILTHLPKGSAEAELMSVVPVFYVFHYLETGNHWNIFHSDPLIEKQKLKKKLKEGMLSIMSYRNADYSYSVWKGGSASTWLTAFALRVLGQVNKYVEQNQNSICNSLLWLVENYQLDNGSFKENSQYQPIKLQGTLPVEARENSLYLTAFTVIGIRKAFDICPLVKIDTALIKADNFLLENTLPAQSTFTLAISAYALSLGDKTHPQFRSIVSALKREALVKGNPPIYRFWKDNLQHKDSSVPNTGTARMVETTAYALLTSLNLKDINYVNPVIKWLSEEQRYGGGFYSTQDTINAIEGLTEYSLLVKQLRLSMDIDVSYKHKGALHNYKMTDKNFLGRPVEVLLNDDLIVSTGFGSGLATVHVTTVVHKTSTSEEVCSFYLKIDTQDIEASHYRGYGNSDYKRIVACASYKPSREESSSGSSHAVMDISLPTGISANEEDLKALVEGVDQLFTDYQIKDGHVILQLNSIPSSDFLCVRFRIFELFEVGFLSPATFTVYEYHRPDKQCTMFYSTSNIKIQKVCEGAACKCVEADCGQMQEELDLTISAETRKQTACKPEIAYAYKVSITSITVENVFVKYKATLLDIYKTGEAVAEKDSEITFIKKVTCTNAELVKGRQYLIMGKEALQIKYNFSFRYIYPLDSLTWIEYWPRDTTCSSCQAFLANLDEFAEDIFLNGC

Substance | Specificity [1] | Specificity [2]
541 (TTVHQRTIKSGCPPGYKSGVDCSPGSECKWGCYAVDGRRYGGYGADSGVGSTYTHEYHVE; Anti-C5 ultralong CDR-H3) [compound 541] | Human | 
543 (TTVHQRTLKNRNCPDGYGYQRHCTVGEDCTDHCCDAYGLCTSYTYTYTYEWYVD; Anti-C5 ultralong CDR-H3) [compound 543] | Human | 
544 (TTVHQRTLKNRNCPDGYGYQRHCTVGEDCTDSCCDRYGLCTTSTETYTYELYVE; Anti-C5 ultralong CDR-H3) [compound 544] | Human | 
545 (TTVHQRTLKNRNRPEGYGYQRHCTVGEECTDSCCDRYGLCTTSTETYTYEWYVD; Anti-C5 ultralong CDR-H3) [compound 545] | Human | 
546 (TTVHQRTKKTCPLGYDLNDRCDHFNTCRVEECCKNGVVNAYGICEYAGGSATYTYEWYVE; Anti-C5 ultralong CDR-H3) [compound 546] | Human | 
547 (TTVHQRTLKNRNCPDGYGYQRHCTVGEDCTDSCCDRYGLCTTSTETYTYEFYVN; Anti-C5 ultralong CDR-H3) [compound 547] | Human | 
548 (TTVHQRTLKNRNCPDGYGYQRHCTVGEDCTDSCCDRYGLCTTSTETYTYEWYVD; Anti-C5 ultralong CDR-H3) [compound 548] | Human | 
549 (TTVHQRTLKNRNCPDGYGYQRHCTVGEDCTDSCCDRYGLCTTSTETYTYEWYVD; Anti-C5 ultralong CDR-H3) [compound 549] | Human | 
550 (TTVHQRTLHNRNCPDGYGYQRHCTVGEDCTERCCDNYGLCTSYTDTYTYEFYVN; Anti-C5 ultralong CDR-H3) [compound 550] | Human | 
559 (TTVHQRTAKRCPSNNEDATACRYSSVCGDYVCEGLSESYAQGWGACRRYACRDSYEWYVD; Anti-C5 ultralong CDR-H3) [compound 559] | Human | 
560 (TTVHQRTAKRCPSNNEDATACRYSSVCGDYVCEGLSESYAQGWGACRRYACRDSYEWYVD; Anti-C5 ultralong CDR-H3) [compound 560] | Human | 
561 (TTVHQQTNKRRQNCPDGYEYNGFCTPDGGCSRVSNWGWDRSCISPTYTYTYEWYVE; Anti-C5 ultralong CDR-H3) [compound 561] | Human | 
562 (TTVHQQTTKKSSCPDGYCDCNGCGYGNGCSRGGCFDFRLYSGYSADIVVSTTYTHDFYID; Anti-C5 ultralong CDR-H3) [compound 562] | Human | 
565 (TTVHQRTIKSGCPPGYKSGVDCSPGSECKWGCYAVDGRRYGGYGADSGVGSTYTHELYVE; Anti-C5 ultralong CDR-H3) [compound 565] | Human | 
566 (TTVVQRTKRTCPEGLVYNSDQSRCCAADSGVCWEYWRGERVTRGFTYEWYVD; Anti-C5 ultralong CDR-H3) [compound 566] | Human | 
567 (TTVHQRTTKRCPSNNEDATACRYSSVCGDYVCEGLSESYAQGWGACRRYACRDSYEWYVD; Anti-C5 ultralong CDR-H3) [compound 567] | Human | 
569 (TTVHQRTAKRCPSNNEEATACRYSSVCGDYVCEGLSESYAQGWGACRRYACRDSYEWYVD; Anti-C5 ultralong CDR-H3) [compound 569] | Human | 
570 (TTVHQRTIKSGCPPGYKSGVDCSPGSEYKWGCYAVDGRRYGGYGADSGVGSTYTHEFYVN; Anti-C5 ultralong CDR-H3) [compound 570] | Human | 
571 (TTVHQRTIKSGCPPGYKSGVDCSPGSECKWGCYAVDGRRYGGYGADSGVGSTYTHEWYVD; Anti-C5 ultralong CDR-H3) [compound 571] | Human | 
579 (HCSPGSDCSWGCYDRDDRRVDGAGADSGLGSTST; Anti-C5 ultralong CDR-H3 knob domain) [compound 579] |  | Human
580 (SCPDGYKDNRFCSPDGGCSAVSHWGWDSSCVS; Anti-C5 ultralong CDR-H3 knob domain) [compound 580] |  | Human
581 (HCSPGSDCSWGCYDKDDRRVDGAGVASGLGST; Anti-C5 ultralong CDR-H3 knob domain) [compound 581] |  | Human

Substance | Specificity [1] | Specificity [2]
582 (GCPPGYKSGVDCSPGSECKWGCYAVDGRRYGGYGADSGVGST; Anti-C5 ultralong CDR-H3 knob domain) [compound 582] |  | Human
583 (SCPDGYHFIEPCHSGLCWREGACNGDGICANGLGRCRTVSETST; Anti-C5 ultralong CDR-H3 knob domain) [compound 583] |  | Human
584 (GCPTGTVAGVHCSPGSDCSWGCYDKDDRRVDGAGAASGLGST; Anti-C5 ultralong CDR-H3 knob domain) [compound 584] |  | Human
585 (RCPDGCFLSSYCPVGYACSGFACCDCGGYDYAGGVRGGRCSVRSTT; Anti-C5 ultralong CDR-H3 knob domain) [compound 585] |  | Human
586 (NCPDGYKYNGFCTPDGGCSRVSSWGWDRSCISPT; Anti-C5 ultralong CDR-H3 knob domain) [compound 586] |  | Human
587 (GCPPGTVAGVHCSPGSDCSWGCYDRDDRRVDGAGADSGLGSTST; Anti-C5 ultralong CDR-H3 knob domain) [compound 587] |  | Human
588 (SCPDGYHFIEPCHSGLCWREGACNGDGICANGLGRCRTVSETST; Anti-C5 ultralong CDR-H3 knob domain) [compound 588] |  | Human
589 (GCPTGTVAGVHCSPGSDCSWGCYDADDRRVDGYGADSGVGSP; Anti-C5 ultralong CDR-H3 knob domain) [compound 589] |  | Human
590 (NCPDGYGYQRHCTVGEDCTDHCCDAYGLCTS; Anti-C5 ultralong CDR-H3 knob domain) [compound 590] |  | Human
591 (NCPDGYGYQRHCTVGEDCTDSCCDRYGLCTTSTET; Anti-C5 ultralong CDR-H3 knob domain) [compound 591] |  | Human
592 (HCTVGEECTDSCCDRYGLCTTSTET; Anti-C5 ultralong CDR-H3 knob domain) [compound 592] |  | Human
593 (NCPDGYGYQRHCTVGEDCTERCCDNYGLCTSYTDT; Anti-C5 ultralong CDR-H3 knob domain) [compound 593] |  | Human
600 (RCPSNNEDATACRYSSVCGDYVCEGLSESYAQGWGACRRYACRDS; Anti-C5 ultralong CDR-H3 knob domain) [compound 600] |  | Human
601 (NCPDGYEYNGFCTPDGGCSRVSNWGWDRSCISPT; Anti-C5 ultralong CDR-H3 knob domain) [compound 601] |  | Human
602 (SCPDGYCDCNGCGYGNGCSRGGCFDFRLYSGYSADIVVSTT; Anti-C5 ultralong CDR-H3 knob domain) [compound 602] |  | Human
603 (SCPDGWGHSDDCNCACSANAYACCKRDWLLPGPSCECSTYCVS; Anti-C5 ultralong CDR-H3 knob domain) [compound 603] |  | Human
604 (SCPDGWSDCHGSCDGVGCTGSDCVRYNARGYGRHACSG; Anti-C5 ultralong CDR-H3 knob domain) [compound 604] |  | Human
605 (GCPPGYKSGVDCSPGSECKWGCYAVDGRRYGGYGADSGVGST; Anti-C5 ultralong CDR-H3 knob domain) [compound 605] |  | Human
606 (TCPEGLVYNSDQSRCCAADSGVCWEYWRGERVTRGFT; Anti-C5 ultralong CDR-H3 knob domain) [compound 606] |  | Human
607 (TCPDGYSYSEGCGKGDDCGGVHCCANGGVTCWYRHCCSTGTDT; Anti-C5 ultralong CDR-H3 knob domain) [compound 607] |  | Human
608 (RCPSNNEEATACRYSSVCGDYVCEGLSESYAQGWGACRRYACRDS; Anti-C5 ultralong CDR-H3 knob domain) [compound 608] |  | Human
609 (SGCPPGYKSGVDCSPGSEYKWGCYAVDGRRYGGYGADSGVGST; Anti-C5 ultralong CDR-H3 knob domain) [compound 609] |  | Human
